Data as given in US20160297873A1 (VIRGINIA COMMONWEALTH UNIVERSITY, published 2016).

T1: biotinylated DENND1A.V2 specific 21 amino acid peptide QKSITHFAAKFPTRGWTSSSH (Biotin-CH22) (human, biotinylated (position not given))
T1 construct: Immobilised on streptavidin pre-coated plates; The label CH22 is not explained; also called Bio-CH-22; bio-peptide
T1 peptide: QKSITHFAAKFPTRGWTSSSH


Assays:
[1] = target: biotinylated DENND1A.V2 specific 21 amino acid peptide … (Biotin-CH22) (human); experiment: QC phage ELISA-1, helper phage control, coating Biotin-CH22
[2] = target: biotinylated DENND1A.V2 specific 21 amino acid peptide … (Biotin-CH22) (human); experiment: QC phage ELISA-2, helper phage control, coating Biotin-CH22
[3] = target: T1, biotinylated DENND1A.V2 specific 21 …; experiment: ELISA (FIG. 11C)

Molecule	phage ELISA signal [1]	phage ELISA signal [2]	binding result [3]
M13KO7 helper phage	0.477	0.533	
human recombinant DENND1A.V2 specific IgG1 (V2 hmAB) (antibody, V domains shown, Expressed in 293E cells, Protein A purified; also called humanized monoclonal antibody; recombinant DENND1A.V2 IgG1) VH: EVQLLESGGGLVQPGGSLRLSCAASGFTFSSYAMSWVRQAPGKGLEWVSIIGTDGDDTNYADSVKGRFTISRDNSKNTLYLQMNSLRAEDTAVYYCAKAEASFDYWGQGTLVTVSS VL: DIQMTQSPSSLSASVGDRVTITCRASQSISSYLNWYQQKPGKAPKLLIYGASDLQSGVPSRFSGSGSGTDFTLTISSLQPEDFATYYCQQYDSAPSTFGQGTKVEIKR			binds
